Measured values published in publication PMC7238435.

Target: recombinant human cartilage oligomeric matrix protein (COMP) (human) (UniProt P49747)
Test: atomic force microscopy

Sequence of recombinant human cartilage oligomeric matrix protein (COMP), P49747 21-757 (natural protein; other documents disagree on this pair) (P49747 21-757): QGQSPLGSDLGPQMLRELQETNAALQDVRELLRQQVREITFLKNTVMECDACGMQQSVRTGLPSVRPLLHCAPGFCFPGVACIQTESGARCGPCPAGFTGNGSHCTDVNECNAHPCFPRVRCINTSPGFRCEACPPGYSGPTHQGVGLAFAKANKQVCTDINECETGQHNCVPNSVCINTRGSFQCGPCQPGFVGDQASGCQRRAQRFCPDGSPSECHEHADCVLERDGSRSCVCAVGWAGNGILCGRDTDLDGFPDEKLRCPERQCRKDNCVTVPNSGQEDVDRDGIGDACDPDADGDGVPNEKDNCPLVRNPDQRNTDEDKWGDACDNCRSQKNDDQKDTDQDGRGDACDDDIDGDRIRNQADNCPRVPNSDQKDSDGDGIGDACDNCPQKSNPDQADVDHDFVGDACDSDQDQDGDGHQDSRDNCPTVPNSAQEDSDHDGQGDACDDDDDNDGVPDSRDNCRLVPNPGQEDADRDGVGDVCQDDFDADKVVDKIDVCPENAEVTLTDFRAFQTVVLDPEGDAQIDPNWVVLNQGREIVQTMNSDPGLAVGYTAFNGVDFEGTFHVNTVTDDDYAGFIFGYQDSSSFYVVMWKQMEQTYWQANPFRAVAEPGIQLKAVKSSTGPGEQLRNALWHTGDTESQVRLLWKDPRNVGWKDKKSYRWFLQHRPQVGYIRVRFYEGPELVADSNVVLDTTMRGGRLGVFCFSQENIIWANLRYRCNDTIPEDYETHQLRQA

stoichiometry N: 5
Substance: recombinant human cartilage oligomeric matrix protein (COMP), P49747 21-757 (natural protein; other documents disagree on this pair)
